B1: H4H13312P2 (antibody, human IgG4, V domains shown)
VH: EVQLVESGGGLVQPGGSLRLSCAASGFIVTTNYMTWLRQAPGKGLEWVSLIYSSGHTYYADSVKGRFTISRHNSKNTLYLQMDSLRAEDTAVYYCASAFAADVFDIWGQGTMVTVSS
VL: not shown
B2: H4H13306P2 (antibody, human IgG4, V domains shown)
VH: EVQLVESGGGLVQPGTSLRLSCAASGFTFDDYAMHWVRQAPGKGLEWVSGITWNSYNIDYADSVKGRFTISRDNAKNSLYLQMNSLRAEDTALYYCAKDDDYSNYVYFDYWGQGTLVTVSS
VL: not shown
B3: H4H13291P2 (antibody, human IgG4, V domains shown)
VH: QVQLVESGGGVVQPGGSLRLSCAASGFTFSGYGMHWVRQAPGKGLEWMAVIWYDGSNDYYPDSVKGRFTISRDNSKNTLYLQMNSLRVEDTAVYYCARDAWDLLRSFDYWGQGTLVTVSS
VL: not shown
B4: H4H13319P2 (antibody, human IgG4, V domains shown)
VH: QVQLVESGGGVVQPGRSLRLSCAASGFTFSSFAMHWVRQAPGKGLEWVAVIWYDGSNDYYAASVKGRFTISRDNSKNTLYLEMNRLRAEDTAVYHCARDNWNYWGGMDVWGQGTTVTVSS
VL: not shown
B5: H4H13309P2 (antibody, human IgG4, V domains shown)
VH: QVQLVQSGTEVKEPGASVKVSCKASGYSFTTYGISWLRQAPGQGLEWMGWISTYNGDTISAQMLQDRVTLTADTSTRTAYMELRSLRSDDTAVYYCARGHEYDSLVYSYWGQGTLVTVSS
VL: not shown
B6: H4H13318P2 (antibody, human IgG4, V domains shown)
VH: QVQLVESGGGVVQPGRSLRLSCVASGFSFSNFGMHWVRQAPGKGLEWVAIIWYDGSNKYYSDSVKGRFTISRDNSKNTLYLQMNSLRVDDTAVYYCARFDRWKFDAFDIWGQGTMVTVSS
VL: not shown
B7: H4H13300P2 (antibody, human IgG4, V domains shown)
VH: QVQLVESGGGVVQPGRSLRLSCAVSGFTFSSYGMHWVRQAPGKGLEWVANIWYDGTNDYYPYSVKGRFTISRDNSQNTLYLQMNSLRAEDTAVYYCAREDFINYRSFDYWGQGTLVTVSS
VL: not shown
B8: H4H13290P2 (antibody, human IgG4, V domains shown)
VH: QVQLQESGPGLVKPSETLSLTCTVSGDSISSYYWTWIRQPPGKGLEWIGYIFYRGGTTYNPSLKSRVTISVDTSKNQFSLKLRSVTAADTAVYYCARGDDLLVVTSVYWYIDLWGRGTLVTVSS
VL: not shown
B9: H4H13311P2 (antibody, human IgG4, V domains shown)
VH: QVQLVESGGGVVQPGRSLRLSCAASGFTFSSYAMHWVRQAPGRGLEWVAVIWHDGDVEYYVDSVKDRFTISRDNSKSTLYLQMNSLRAEDTALYYCAREAWDLLRPFDYWGQGTLVTVSS
VL: not shown
B10: H4H13331P2 (antibody, human IgG4, V domains shown)
VH: QVQLQESGPGLVKSSETLSLTCTVSGGSIRNFYWSWLRQPPGKGLEWIGHINYNGGTDYNPSLKSRVTISVDTSKNQFSLNLNSVTAADTAVYYCARQRFYGMDVWGPGTTVTVSS
VL: not shown
B11: H4H13299P2 (antibody, human IgG4, V domains shown)
VH: EVQLVESGGGLVQPGGSLRLSCAASGFIFSNYEMNWVRQAPGKGLEWISYITSSGNMKYYADSVKGRFTISRDNDKNSLYLQMSSLRVEDTAVYYCVRGGRFLEWLTYYVMVVWGQGTTVTVSS
VL: not shown
B12: H4H14634D (bispecific antibody, human IgG4, V domains shown)
VH 1: B8 VH
VH 2: B1 VH
VL: not shown
notes: MET x MET bispecific, expressed as human IgG4; also called bispecific antibody No. 10
B13: H4H14635D (bispecific antibody, human IgG4, V domains shown)
VH 1: QVQLVESGGGVVQPGRSLRVSCVVSGFTFSSFGMHWVRQAPDKGLEWVAVIWYDGSNDYYSDSVKGRFTISRDNSKNTLFLQMNRLRAEDTAVYYCARANNWNRFDAFDLWGQGTMVTVSS
VH 2: B1 VH
VL: not shown
notes: MET x MET bispecific, expressed as human IgG4; also called bispecific antibody No. 42
B14: H4H14636D (bispecific antibody, human IgG4, V domains shown)
VH 1: B11 VH
VH 2: B1 VH
VL: not shown
notes: MET x MET bispecific, expressed as human IgG4; also called bispecific antibody No. 74
B15: H4H14637D (bispecific antibody, human IgG4, V domains shown)
VH 1: QVQLVESGGGVVQPGTSLRLSCVASGFTFRNFGMHWVRQAPGKGLEWVANIWFDGSNENYVESIQGRFTISRDNSKNTLNLQMNSLRAEDSAVYYCVREGILGTTNPYDAFDVWGQGTMVTVSS
VH 2: B1 VH
VL: not shown
notes: MET x MET bispecific, expressed as human IgG4; also called bispecific antibody No. 90
B16: H4H14638D (bispecific antibody, human IgG4, V domains shown)
VH 1: QVQLVESGGGVVQPGRSLRLSCAASGFTFSNFGMHWVRQAPGKGLEWVAGIWFDGSNKNYIDSVKGRFTISRDNSKNTLYLQMNSLRAEDTAVYYCAREGYDSGTDYIPYDIFDIWGQGTMVTVSS
VH 2: B1 VH
VL: not shown
notes: MET x MET bispecific, expressed as human IgG4
B17: H4H14640D (bispecific antibody, human IgG4, V domains shown)
VH 1: B5 VH
VH 2: B1 VH
VL: not shown
notes: MET x MET bispecific, expressed as human IgG4; also called bispecific antibody No. 138
B18: H4H14641D (bispecific antibody, human IgG4, V domains shown)
VH 1: QVQLVESGGGVVQPGRSLRLSCSASGFSFSHFGMHWVRQVPGGGLEWVTSIWFDGSNRYYADSLKGRFTISRDNSKNTLYLEMNSLRAEDTAVYYCVREGILGTTNPYDVFDVWGQGTMVTVSS
VH 2: B1 VH
VL: not shown
notes: as for B16
B19: H4H16445D (bispecific antibody, human IgG4, V domains shown)
VH 1: B3 VH
VH 2: B1 VH
VL: not shown
notes: MET x MET bispecific, expressed as human IgG4; also called bispecific antibody No. 26
B20: H4H16446D (bispecific antibody, human IgG4, V domains shown)
VH 1: B7 VH
VH 2: B1 VH
VL: not shown
notes: MET x MET bispecific, expressed as human IgG4; also called bispecific antibody No. 58
B21: H4H16447D (bispecific antibody, human IgG4, V domains shown)
VH 1: B9 VH
VH 2: B1 VH
VL: not shown
notes: MET x MET bispecific, expressed as human IgG4; also called bispecific antibody No. 154
B22: H4H16448D (bispecific antibody, human IgG4, V domains shown)
VH 1: B6 VH
VH 2: B1 VH
VL: not shown
notes: MET x MET bispecific, expressed as human IgG4; also called bispecific antibody No. 219

Target: T1, human MET on cells (human, UniProt P08581 25-1390)
Experiment: cell-based or functional assay
Throughout, for % Inhibition, HEK293/SRE-Luc Blocking Activity (HGF, 1 h mAb pre-bind): test concentration or dose not given here.

T1 sequence (P08581 25-1390 limits assumed, form in doubt): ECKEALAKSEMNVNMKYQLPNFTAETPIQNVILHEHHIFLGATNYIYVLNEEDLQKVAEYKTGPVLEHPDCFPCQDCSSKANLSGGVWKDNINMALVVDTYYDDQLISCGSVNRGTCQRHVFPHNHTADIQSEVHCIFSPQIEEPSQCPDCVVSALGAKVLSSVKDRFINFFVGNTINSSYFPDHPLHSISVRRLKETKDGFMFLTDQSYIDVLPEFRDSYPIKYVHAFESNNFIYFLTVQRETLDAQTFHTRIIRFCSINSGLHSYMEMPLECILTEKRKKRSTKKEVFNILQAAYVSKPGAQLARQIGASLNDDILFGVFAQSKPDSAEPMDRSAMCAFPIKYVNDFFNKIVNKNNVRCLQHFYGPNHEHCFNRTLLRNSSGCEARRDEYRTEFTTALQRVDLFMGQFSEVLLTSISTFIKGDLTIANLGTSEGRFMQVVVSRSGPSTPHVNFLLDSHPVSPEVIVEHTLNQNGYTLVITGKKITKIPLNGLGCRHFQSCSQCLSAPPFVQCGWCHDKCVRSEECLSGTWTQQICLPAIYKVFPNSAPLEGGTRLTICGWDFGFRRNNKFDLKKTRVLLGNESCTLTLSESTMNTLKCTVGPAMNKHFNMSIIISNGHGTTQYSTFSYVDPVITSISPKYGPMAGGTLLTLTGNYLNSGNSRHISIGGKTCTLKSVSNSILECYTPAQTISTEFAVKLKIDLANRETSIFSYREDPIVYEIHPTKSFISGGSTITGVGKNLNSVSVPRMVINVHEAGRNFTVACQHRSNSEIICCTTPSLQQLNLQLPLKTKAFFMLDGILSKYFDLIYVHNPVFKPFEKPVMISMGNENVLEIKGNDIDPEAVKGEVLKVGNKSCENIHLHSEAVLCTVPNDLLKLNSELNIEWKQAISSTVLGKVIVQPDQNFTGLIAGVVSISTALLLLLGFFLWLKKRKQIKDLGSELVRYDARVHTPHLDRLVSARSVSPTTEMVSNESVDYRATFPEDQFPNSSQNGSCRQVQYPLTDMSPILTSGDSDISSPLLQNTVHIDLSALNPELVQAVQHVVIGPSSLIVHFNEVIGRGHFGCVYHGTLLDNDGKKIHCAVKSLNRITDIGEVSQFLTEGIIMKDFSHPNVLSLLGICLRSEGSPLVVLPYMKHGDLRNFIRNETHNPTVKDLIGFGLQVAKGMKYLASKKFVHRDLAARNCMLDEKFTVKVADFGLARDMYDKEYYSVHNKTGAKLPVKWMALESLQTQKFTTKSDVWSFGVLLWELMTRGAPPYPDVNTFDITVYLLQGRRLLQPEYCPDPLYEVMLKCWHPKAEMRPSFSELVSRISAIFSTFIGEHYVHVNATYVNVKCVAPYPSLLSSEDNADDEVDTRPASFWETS

Binder	% Inhibition, HEK293/SRE-Luc Blocking Activity (HGF, 1 h mAb pre-bind) [%]	EC50, Ligand (HGF)-Independent HEK293/SRE-Luc Activation [nM]	Fold Response, Ligand (HGF)-Independent HEK293/SRE-Luc Activation [fold]	IC50, HEK293/SRE-Luc Blocking Activity (HGF, 1 h mAb pre-bind) [nM]
B1	48	0.12		
B2		0.013		
B3	61	0.39	2.7	0.13
B4	67	0.18	4.8	0.052
B5	77	0.39	9.2	0.2
B6	77		3.1	0.1
B7	69	0.48	2.8	0.12
B8	56	< 0.002	9.8	< 0.002
B9	62	0.3	5.2	0.035
B10	75	0.0023	7.1	< 0.01
B11	51	0.0037	14.4	

Target: T2, hMet.mmh (human MET extracellular domain with C-terminal myc-myc-hexahistidine tag) (human, UniProt P08581 309-914; P08581 27-307)
T2 construct: soluble monomeric MET; also called monomeric human MET
Experiment: SPR 37C, antibody captured
Protocol: Kinetic association (kₐ) and dissociation (kd) rate constants were determined as described in Example 3.

T2 sequence (P08581 other isoform, or with tags, fused parts or gaps limits assumed, chain 1 of 2): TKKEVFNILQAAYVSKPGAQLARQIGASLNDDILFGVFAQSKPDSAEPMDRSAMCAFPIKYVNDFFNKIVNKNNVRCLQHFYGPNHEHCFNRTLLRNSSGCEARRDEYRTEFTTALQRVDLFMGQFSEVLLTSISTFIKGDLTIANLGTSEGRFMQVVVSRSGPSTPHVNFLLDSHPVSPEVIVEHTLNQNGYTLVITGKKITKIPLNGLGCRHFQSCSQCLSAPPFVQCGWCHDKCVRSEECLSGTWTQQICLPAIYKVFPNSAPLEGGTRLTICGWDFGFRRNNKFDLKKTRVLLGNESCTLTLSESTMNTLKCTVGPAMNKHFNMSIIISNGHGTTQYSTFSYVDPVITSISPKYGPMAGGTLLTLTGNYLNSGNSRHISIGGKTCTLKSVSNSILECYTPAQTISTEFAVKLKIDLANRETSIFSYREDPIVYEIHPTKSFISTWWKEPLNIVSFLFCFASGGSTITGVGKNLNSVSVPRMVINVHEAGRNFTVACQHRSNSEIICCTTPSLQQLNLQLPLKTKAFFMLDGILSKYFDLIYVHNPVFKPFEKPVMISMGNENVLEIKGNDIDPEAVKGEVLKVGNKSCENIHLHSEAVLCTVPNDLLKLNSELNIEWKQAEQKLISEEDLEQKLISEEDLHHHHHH
T2 sequence (P08581 27-307 limits assumed, chain 2 of 2): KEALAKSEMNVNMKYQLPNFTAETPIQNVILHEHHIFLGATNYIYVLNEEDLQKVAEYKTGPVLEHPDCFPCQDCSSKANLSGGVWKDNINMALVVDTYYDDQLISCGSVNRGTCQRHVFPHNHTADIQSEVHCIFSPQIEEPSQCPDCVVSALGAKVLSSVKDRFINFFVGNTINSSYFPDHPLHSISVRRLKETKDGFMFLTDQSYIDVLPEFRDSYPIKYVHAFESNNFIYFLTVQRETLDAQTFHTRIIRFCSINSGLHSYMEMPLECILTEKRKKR

Binder	T½ [min]	koff [s⁻¹]
B12	≥ 1160	≤ 1e-05
B13	141	8.21e-05
B14	≥ 1160	≤ 1e-05
B15	35.4	0.000326
B16	70.2	0.000165
B17	≥ 1160	≤ 1e-05
B18	35.3	0.000327
B19	29.4	0.000393
B20	112	0.000103
B21	13.6	
B22	19.5	0.000592

Target: T1, human MET on cells
Experiment: cell-based or functional assay
Remark: another data set of the same source

Binder	% Growth Inhibition, SNU5 cells [%]	IC50, SNU5 growth [nM]
B1	69	0.78
B2	28	0.071
B3	24	
B4	23	0.1
B5	22	0.1
B6	18	0.051
B7	16	
B8	12	
B9	8	
B10	5	
B11	-8	

Target: T1, human MET on cells
Experiment: cell-based or functional assay
Remark: another data set of the same source

Binder	IC50, 6-day in vitro cytotoxicity, A549 [nM]	IC50, 6-day in vitro cytotoxicity, EBC-1 [nM]	IC50, 6-day in vitro cytotoxicity, Hs746t [nM]	Max % Kill, 6-day in vitro cytotoxicity, A549 [%]	Max % Kill, 6-day in vitro cytotoxicity, EBC-1 [%]	Max % Kill, 6-day in vitro cytotoxicity, Hs746t [%]
B1	> 100	> 100	> 100	7	30	0

From patent US20220040319A1 (Regeneron, published 2022)
